B1: Histone-lysine N-methyltransferase PRDM16 (Homo sapiens), Q9HAZ2-4 (parent)
chain: MCQISEQIYYKVIKDIEPGEELLVHVKEGVYPLGTVPPGLDEEPTFRCDECDELFQSKLDLRRHKKYTCGSVGAALYEGLAEELKPEGLGGGSGQAHECKDCERMFPNKYSLEQHMVIHTEEREYKCDQCPKAFNWKSNLIRHQMSHDSGKRFECENCVKVFTDPSNLQRHIRSQHVGARAHACPDCGKTFATSSGLKQHKHIHSTVKPFICEVCHKSYTQFSNLCRHKRMHADCRTQIKCKDCGQMFSTTSSLNKHRRFCEGKNHYTPGGIFAPGLPLTPSPMMDKAKPSPSLNHASLGFNEYFPSRPHPGSLPFSTAPPTFPALTPGFPGIFPPSLYPRPPLLPPTSLLKSPLNHTQDAKLPSPLGNPALPLVSAVSNSSQGTTAAAGPEEKFESRLEDSCVEKLKTRSSDMSDGSDFEDVNTTTGTDLDTTTGTGSDLDSDVDSDPDKDKGKGKSAEGQPKFGGGLAPPGAPNSVAEVPVFYSQHSFFPPPDEQLLTATGAAGDSIKAIASIAEKYFGPGFMGMQEKKLGSLPYHSAFPFQFLPNFPHSLYPFTDRALAHNLLVKAEPKSPRDALKVGGPSAECPFDLTTKPKDVKPILPMPKGPSAPASGEEQPLDLSIGSRARASQNGGGREPRKNHVYGERKLGAGEGLPQVCPARMPQQPPLHYAKPSPFFMDPIYSRVEKRKVTDPVGALKEKYLRPSPLLFHPQMSAIETMTEKLESFAAMKADSGSSLQPLPHHPFNFRSPPPTLSDPILRKGKERYTCRYCGKIFPRSANLTRHLRTHTGEQPYRCKYCDRSFSISSNLQRHVRNIHNKEKPFKCHLCNRCFGQQTNLDRHLKKHEHENAPVSQHPGVLTNHLGTSASSPTSESDNHALLDEKEDSYFSEIRNFIANSEMNQASTRTEKRADMQIVDGSAQCPGLASEKQEDVEEEDDDDLEEDDEDSLAGKSQDDTVSPAPEPQAAYEDEEDEEPAASLAVGFDHTRRCAEDHEGGLLALEPMPTFGKGLDLRRAAEEAFEVKDVLNSTLDSEALKHTLCRQAKNQAYAMMLSLSEDTPLHTPSQGSLDAWLKVTGATSESGAFHPINHL

Key:
[1] = variants of: B1; conditions: with ctbp2_mouse Ctbp2, P56546
[2] = variants of: B1; conditions: with ctbp2_mouse Ctbp2, P56546; remark: listed apart in the source
[3] = variants of: B1; conditions: with hdac2_chick HDAC2, P56519
Sequence of hdac2_chick HDAC2, P56519 (P56519 whole entry): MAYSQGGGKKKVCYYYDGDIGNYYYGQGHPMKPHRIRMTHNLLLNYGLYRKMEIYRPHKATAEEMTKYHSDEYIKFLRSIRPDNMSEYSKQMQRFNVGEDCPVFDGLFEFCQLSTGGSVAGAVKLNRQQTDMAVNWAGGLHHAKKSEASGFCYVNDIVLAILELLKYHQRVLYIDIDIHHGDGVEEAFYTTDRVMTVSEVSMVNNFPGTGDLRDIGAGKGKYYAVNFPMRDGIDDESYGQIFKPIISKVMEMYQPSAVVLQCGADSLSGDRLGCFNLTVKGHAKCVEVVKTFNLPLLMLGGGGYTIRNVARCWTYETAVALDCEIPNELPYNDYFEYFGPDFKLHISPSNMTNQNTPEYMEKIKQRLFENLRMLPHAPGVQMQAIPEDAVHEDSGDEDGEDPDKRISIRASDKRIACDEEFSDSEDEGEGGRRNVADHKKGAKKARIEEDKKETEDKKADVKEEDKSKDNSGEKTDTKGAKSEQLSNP

Sequence of ctbp2_mouse Ctbp2, P56546 (P56546 whole entry): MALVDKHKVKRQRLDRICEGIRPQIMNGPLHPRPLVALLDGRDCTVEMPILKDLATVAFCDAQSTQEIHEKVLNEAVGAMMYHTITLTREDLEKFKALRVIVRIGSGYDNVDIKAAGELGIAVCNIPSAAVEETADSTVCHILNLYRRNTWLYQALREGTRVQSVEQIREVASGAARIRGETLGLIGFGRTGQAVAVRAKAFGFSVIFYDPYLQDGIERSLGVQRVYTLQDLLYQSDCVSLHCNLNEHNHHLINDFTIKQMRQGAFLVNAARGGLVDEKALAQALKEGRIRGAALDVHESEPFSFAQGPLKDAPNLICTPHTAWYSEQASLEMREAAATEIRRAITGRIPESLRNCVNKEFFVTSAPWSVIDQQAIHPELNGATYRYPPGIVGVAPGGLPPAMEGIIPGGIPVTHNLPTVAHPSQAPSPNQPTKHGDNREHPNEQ

Variant	effect of a mutation on the interaction [1]	effect of a mutation on the interaction [2]	effect of a mutation on the interaction [3]
D590A;L591S;D620A;L621S	disrupting interaction	disrupting interaction	decreasing interaction
K568R;D590A;L591S;L619S;D620A			decreasing interaction
K568R			decreasing interaction

— IntAct's records for PubMed 21516122
